Experimental findings from US20250027068 are described below.

Where a chain is given by its changes, count along the chain named.

B1: PRT-435 (protein)
chain: MSQTEDSESLQRLRDIEDFQAEKEKQNVVYTKWLDGVDVKDHDFRKIVDGNIAYYATPLLNGRGFYDINKDFNRDSDKCAAAVAANMFHYWLDRNRDNVDRFLRQNPEKHGIIELPDGQLKLSDFLNTYESDDGYRDKSKLFDFISNNFNGPVWTDKLLDNYINGYAYNYKYGRTIEDPTKNTSKINFFKEVFNEKILTNNHSIRNQNEFSVLLSEALYTGKAIGLSYGPAGLRHSLGHIISVWGADLDADGNVVAIYVTDSDDKKLTIGDERVGLKRYKISTDDEGRLRLTAYEETHNTGGQIRGLWTLDTGKQAWADYFDKTEQTGTDQAEQ
B2: PRT-445 (protein)
chain: B1 chain with E24K, P179S
B3: PRT-438 (protein)
chain: B1 chain with E24K, F65L
B4: PRT-440 (protein)
chain: B1 chain with E24K, F210L
B5: PRT-441 (protein)
chain: B1 chain with E24K, L233T
B6: PRT-436 (protein)
chain: B1 chain with E24K, K25D
B7: PRT-577 (protein)
chain: MANQEIRYSKATPSTITSVWTKGVTPPENFIYNEDVLHAPYLANQGWYDITKTFNGKDDLLCGAATAGNMLHWWFDQNKEQIERYLKEHPEKQKINFNGEQMFDVKEAIDTKDSQTNSKLFEYFKDKAFPYLSTKHLGVFPDHVIDMFINGYRLSLTNHGPTPVKEQTKDPRGGIFDAVFTRGDQSKLLTSRHDFKEKTLNEISQLIKQELTEGKALGLSHTYANVRINHVINLWGADFNAEGNLEAIYVTDSDSNASIGMKKYYVGVNSAGKVAISAKEIEGDNIGAQVLGLFTLSTGQDIWQQTNLEHHHHHH
B8: PRT-585 (protein)
chain: B7 chain with N29Q, L42I, E88K, Q205D, Q304E
B9: PRT-594 (protein)
chain: MANQEIRYSEETPSTITSVWTKGVTPPTDFIQNEDVLHAPYIANQGWYDITKTFNGKDDLLCGAATAGNMLHWWFDQNKEQIENYLKKHPEKQKINFNGEQMFDVKEAIDTKDSQLDSALFEYFKDKAFPYLSTKHLGVFPDHVIDMFINGYRLSLTNHGPTPVKRGTKDPRGGIFDAVFTRGDQSKLLTSRHDFKEKTLNEISDLIKQELTEGKALGLSHTYANVRINHVINLWGADFNAEGNLEAIYVTDSDSNASIGMKKYYVGVNSAGKVAISAKEIEGDNIGAQVLGLFTLSTGQDIWNQTNLEHHHHHH

One data set has as its target pooled human IgG (human IgG1,2,3 and 4).
With B1, the Enzyme Activity Endpoint Assay: Fab′2 amounted to 35 ng/µL, the Enzyme Activity Endpoint Assay: Fc came out at 205 ng/µL, the Enzyme Activity Endpoint Assay: IgG turned out to be 625 ng/µL and the Enzyme Activity Endpoint Assay: scIgG was found to be 380 ng/µL.

In a further data set the target is pooled human IgG (human IgG1, 2, 3 and 4).
In turn, B1 came in with an Enzyme Activity Endpoint Assay (purified): Fab′2 of 35 ng/µL, an Enzyme Activity Endpoint Assay (purified): Fc of 205 ng/µL, an Enzyme Activity Endpoint Assay (purified): IgG of 625 ng/µL and an Enzyme Activity Endpoint Assay (purified): scIgG of 380 ng/µL.
Consider B2, for which the Enzyme Activity Endpoint Assay (purified): Fab'2 stood at 559 ng/µL, the Enzyme Activity Endpoint Assay (purified): Fc worked out at 330 ng/µL, the Enzyme Activity Endpoint Assay (purified): IgG stood at 0 ng/µL and the Enzyme Activity Endpoint Assay (purified): scIgG turned out to be 259 ng/µL.
Taken in the same sequence, the figures for B3 were 578 ng/µL, 320 ng/µL, 0 ng/µL and 249 ng/µL.
Taken in the same sequence, the figures for B4 were 575 ng/µL, 328 ng/µL, 0 ng/µL and 245 ng/µL.
Taken in the same sequence, the figures for B5 were 514 ng/µL, 310 ng/µL, 0 ng/µL and 217 ng/µL.
As to B6, the Enzyme Activity Endpoint Assay (purified): Fab'2 worked out at 445 ng/µL, the Enzyme Activity Endpoint Assay (purified): Fc came to 305 ng/µL, the Enzyme Activity Endpoint Assay (purified): IgG was 0 ng/µL and the Enzyme Activity Endpoint Assay (purified): scIgG stood at 379 ng/µL.
B7 gave an Enzyme Activity Endpoint Assay (purified): Fab'2 of 566 ng/µL, an Enzyme Activity Endpoint Assay (purified): Fc of 338 ng/µL, an Enzyme Activity Endpoint Assay (purified): IgG of 0 ng/µL and an Enzyme Activity Endpoint Assay (purified): scIgG of 230 ng/µL.
As to B8, the Enzyme Activity Endpoint Assay (purified): Fab'2 was determined as 574 ng/µL, the Enzyme Activity Endpoint Assay (purified): Fc came out at 303 ng/µL, the Enzyme Activity Endpoint Assay (purified): IgG was 0 ng/µL and the Enzyme Activity Endpoint Assay (purified): scIgG is 229 ng/µL.
For B9 the same measures were 138 ng/µL, 271 ng/µL, 123 ng/µL and 487 ng/µL.
